Experiments:
Assay in all cases: ELISA
R2N_1G11 = target: R2N_1G11
R3N_2D3 = target: R3N_2D3
[1] = target: T1, DENV-2 EDIII wild-type Fc-fusion antigen (dengue virus serotype 2 (DENV-2), …)
T1 chain: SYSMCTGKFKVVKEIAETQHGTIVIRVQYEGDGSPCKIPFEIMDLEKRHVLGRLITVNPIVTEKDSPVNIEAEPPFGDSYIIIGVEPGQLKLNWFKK

[2] = target: soluble E80 protein of DENV-3 (dengue virus serotype 3 (DENV-3))
[3] = target: soluble DENV-2 envelope protein (D2E80) (dengue virus serotype 2 (DENV-2), …)
[4] = target: soluble E80 protein of DENV-1 (dengue virus serotype 1 (DENV-1))

B1: soluble E80 protein of DENV-4 (domain or fragment)
chain: MRCVGVGNRDFVEGVSGGAWVDLVLEHGGCVTTMAQGKPTLDFELIKTTAKEVALLRTYCIEASISNITTATRCPTQGEPYLKEEQDQQYICRRDVVDRGWGNGCGLFGKGGVVTCAKFSCSGKITGNLVQIENLEYTVVVTVHNGDTHAVGNDIPNHGVTATITPRSPSVEVKLPDYGELTLDCEPRSGIDFNEMILMKMKKKTWLVHKQWFLDLPLPWAAGADTSEVHWNYKERMVTFKVPHAKRQDVTVLGSQEGAMHSALTGATEVDSGDGNHMFAGHLKCKVRMEKLRIKGMSYTMCSGKFSIDKEMAETQHGTTVVKVKYEGAGAPCKVPIEIRDVNKEKVVGRIISSTPFAEYTNSVTNIELEPPFGDSYIVIGVGDSALTLHWFRKG
Kd (R2N_1G11): > 67 nM | Kd (R3N_2D3): 0.32 nM

B2: 2H12 mouse antibody (antibody, V domains shown)
VH: DVQLVEPGAELVQPGASVKMSCKASGYTFSSYWINWEKQRPGKGLEWIGNIYPGSGTVNYDDKFKSKATLTIDTSSNTAYMQLSSLTSEDSAVYYCTRGGSHAMDYWGQGTSVTVSS
VL: DIVMTQSQKFMSTSVGDRVSITCKASQNVRTSVAWYQQKPGQSPKALIYLASNRHTGVPDRFTGSGSGTDFTLTISNVQSEDLADYFCLQHWTYPYTFGGGTKLEIK
Kd [1]: 0.39 nM

B3: 513 engineered and humanized antibody (antibody, V domains shown)
VH: QVQLVQSGAEVKKPGASVKVSCKAGFNIKDVYMSWVRQAPEQGLEWMGRIDPENGDTKYDPKLQGRVTMTADTSTNTAYMELRSLRSDDTAVYYCARGWEGFAYWGQGTLVTVSS
VL: DIVMTQSPASLAVSLGQRATISCRASENVDKYGNSFMHWYQQKPGQPPKLLIYRASELQWGVPDRFSGSGSGTDFTLTISSLQAEDVAVYYCQRSNEVPWTFGQGTKLEIK
Kd [2]: 0.46 nM | Kd [3]: 0.087 nM | Kd [4]: 0.054 nM | Kd [1]: 0.066 nM

B4: 3H5 mouse antibody (antibody, V domains shown)
VH: QVQLQQSGAEVARPGASVKLSCKASGYTFTSYWLQWVKQRPGQGLEWIGAIWPGDDDTRYAQKFQGKATMTADKSSSTAYIQLSNLASEDSAVYYCARKGGFAMDYWGQGTSVTVSS
VL: NIVMTQSPTSLAVSLGQRATISCRASESVDSFGKSFMHFYQQKPGQPPKLLIHLASNLESGVPARFTGRGSRTDFTLTIDPVEADDAATYYCQQNNEVPFTFGSGTKLEVK
Kd [1]: 1.06 nM

B5: 2C8 mouse antibody (antibody, V domains shown)
VH: EVKLVESGGGLVQPGGSLSLSCAASGFTFTDYYMTWVRQPPGKALEWLALIRNKASGYTTEYSASVKGRFTISRDNSQSILYLQMNALRAEDSATYYCTRAKWDGHYFDYWGQGTTLTVSS
VL: DIQMTQSPASLSVSVGETVTITCRATKNIYNNLAWYQQKQGRSPQLLVYAATNLADGVPSRFSGSGSGTQFSLRINSLQSEDFGNYYCQHFWHTPWTFGGGTKLEIK
Kd [1]: 0.22 nM

Reference: publication PMC11320570 (2024)
